This note sets out measurements from article PMC3376392 (Nature, 2012).

One series addresses T1, NPR3 (Arabidopsis thaliana, UniProt Q8L746).
T1 sequence (Q8L746 1-586): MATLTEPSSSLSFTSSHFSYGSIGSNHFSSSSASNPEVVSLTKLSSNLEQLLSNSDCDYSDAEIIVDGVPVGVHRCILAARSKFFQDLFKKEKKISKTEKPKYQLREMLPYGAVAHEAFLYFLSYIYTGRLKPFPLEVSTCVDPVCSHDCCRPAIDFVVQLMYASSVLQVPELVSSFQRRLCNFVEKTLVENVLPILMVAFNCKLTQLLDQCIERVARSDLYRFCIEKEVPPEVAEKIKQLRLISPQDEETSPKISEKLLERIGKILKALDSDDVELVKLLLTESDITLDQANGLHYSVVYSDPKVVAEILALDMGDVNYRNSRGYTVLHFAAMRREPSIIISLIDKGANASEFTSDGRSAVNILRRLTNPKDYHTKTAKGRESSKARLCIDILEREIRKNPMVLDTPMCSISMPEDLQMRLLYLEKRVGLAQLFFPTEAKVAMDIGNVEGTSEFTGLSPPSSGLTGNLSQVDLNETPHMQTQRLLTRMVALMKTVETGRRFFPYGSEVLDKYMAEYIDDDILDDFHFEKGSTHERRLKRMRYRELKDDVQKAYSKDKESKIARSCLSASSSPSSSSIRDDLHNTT
The series can be described thus: [3H]-SA binding.

A further series concerns the target T2, His-MBP-NPR1 (Arabidopsis thaliana, UniProt P93002 1-593).
T2 sequence: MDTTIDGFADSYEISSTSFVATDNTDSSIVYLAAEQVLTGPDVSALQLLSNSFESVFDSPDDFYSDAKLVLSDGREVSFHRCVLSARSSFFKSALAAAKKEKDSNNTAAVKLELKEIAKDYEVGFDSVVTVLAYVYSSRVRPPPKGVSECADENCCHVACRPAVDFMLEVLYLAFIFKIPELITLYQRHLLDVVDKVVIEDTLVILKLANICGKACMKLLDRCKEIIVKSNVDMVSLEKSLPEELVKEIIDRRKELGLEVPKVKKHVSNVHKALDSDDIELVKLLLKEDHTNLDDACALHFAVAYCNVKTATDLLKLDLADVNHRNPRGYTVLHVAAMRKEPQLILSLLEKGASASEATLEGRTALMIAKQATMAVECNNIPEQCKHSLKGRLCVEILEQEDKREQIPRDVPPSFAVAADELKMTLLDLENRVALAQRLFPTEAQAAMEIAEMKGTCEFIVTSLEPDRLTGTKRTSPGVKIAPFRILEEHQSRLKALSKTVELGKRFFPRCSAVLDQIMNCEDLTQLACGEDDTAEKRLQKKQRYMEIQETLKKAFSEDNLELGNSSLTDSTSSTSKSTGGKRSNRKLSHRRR
Nature of the series: pull-down.

The series “SEC” concerns the molecule itself. Nature of the series: SEC. For orientation: SEC sorts molecules by how far they enter the pores of the column.

For the molecule `O=C(O)c1ccccc1O` [SA, Salicylic acid], at NPR3, the equilibrium dissociation constant (Kd) is 981 nM.

B1: GST-NPR4 (natural protein)
chain: MAATAIEPSSSISFTSSHLSNPSPVVTTYHSAANLEELSSNLEQLLTNPDCDYTDAEIIIEEEANPVSVHRCVLAARSKFFLDLFKKDKDSSEKKPKYQMKDLLPYGNVGREAFLHFLSYIYTGRLKPFPIEVSTCVDSVCAHDSCKPAIDFAVELMYASFVFQIPDLVSSFQRKLRNYVEKSLVENVLPILLVAFHCDLTQLLDQCIERVARSDLDRFCIEKELPLEVLEKIKQLRVKSVNIPEVEDKSIERTGKVLKALDSDDVELVKLLLTESDITLDQANGLHYAVAYSDPKVVTQVLDLDMADVNFRNSRGYTVLHIAAMRREPTIIIPLIQKGANASDFTFDGRSAVNICRRLTRPKDYHTKTSRKEPSKYRLCIDILEREIRRNPLVSGDTPTCSHSMPEDLQMRLLYLEKRVGLAQLFFPAEANVAMDVANVEGTSECTGLLTPPPSNDTTENLGKVDLNETPYVQTKRMLTRMKALMKTVETGRRYFPSCYEVLDKYMDQYMDEEIPDMSYPEKGTVKERRQKRMRYNELKNDVKKAYSKDKVARSCLSSSSPASSLREALENPT
As to B1, the binding result with His-MBP-NPR1 was “binds”.

B2: purified recombinant NPR4 protein (natural protein)
chain: MAATAIEPSSSISFTSSHLSNPSPVVTTYHSAANLEELSSNLEQLLTNPDCDYTDAEIIIEEEANPVSVHRCVLAARSKFFLDLFKKDKDSSEKKPKYQMKDLLPYGNVGREAFLHFLSYIYTGRLKPFPIEVSTCVDSVCAHDSCKPAIDFAVELMYASFVFQIPDLVSSFQRKLRNYVEKSLVENVLPILLVAFHCDLTQLLDQCIERVARSDLDRFCIEKELPLEVLEKIKQLRVKSVNIPEVEDKSIERTGKVLKALDSDDVELVKLLLTESDITLDQANGLHYAVAYSDPKVVTQVLDLDMADVNFRNSRGYTVLHIAAMRREPTIIIPLIQKGANASDFTFDGRSAVNICRRLTRPKDYHTKTSRKEPSKYRLCIDILEREIRRNPLVSGDTPTCSHSMPEDLQMRLLYLEKRVGLAQLFFPAEANVAMDVANVEGTSECTGLLTPPPSNDTTENLGKVDLNETPYVQTKRMLTRMKALMKTVETGRRYFPSCYEVLDKYMDQYMDEEIPDMSYPEKGTVKERRQKRMRYNELKNDVKKAYSKDKVARSCLSSSSPASSLREALENPT
Consider B2, for which the “stoichiometry N” value in the series “SEC” was ~4.

The Kd is the concentration at which binding is half-saturated. Usually stoichiometry N stands for the number of molecules, sites or subunits per partner or assembly.
